B1: Ic_S2_P3E.1_K3.1_C3.1_H3.1_A3.1_[A6T]_F3.1_T3.1 (ssRNA)
RNA: UUUGAUUAAUAUGAUAUCGUUCUUUCUUGUAUUUAUUCUUUCUCGAUAUCAUAUUAAUCUUU
B2: Ib_S2_P4E.1_K4.1_C4.1_H4.1_A4.1_F4.1_[T8G]_[A9G]_T4.1 (ssRNA)
RNA: UUUGAUUAAUAUGAUAUCGUUCUUUCUUGUAUAUGGUUCUUUCUCGAUAUCAUAUUAAUCUUU
B3: Ib_S2_P4E.1_K4.1_C4.1_H4.1_[A4G]_A4.1_F4.1_[T8C]_T4.1 (ssRNA)
RNA: UUUGAUUAAUAUGAUAUCGUUCUUUCUUGUGUAUCAUUCUUUCUCGAUAUCAUAUUAAUCUUU
B4: Ib_S2_P4E.1_K4.1_C4.1_H4.1_[G2A]_A4.1_F4.1_[A9G]_T4.1 (ssRNA)
RNA: UUUGAUUAAUAUGAUAUCGUUCUUUCUUAUAUAUUGUUCUUUCUCGAUAUCAUAUUAAUCUUU
B5: Ib_S2_P4E.1_K4.1_C4.1_H4.1_[A4C]_A4.1_F4.1_[A9C]_T4.1 (ssRNA)
RNA: UUUGAUUAAUAUGAUAUCGUUCUUUCUUGUCUAUUCUUCUUUCUCGAUAUCAUAUUAAUCUUU
B6: Ib_S2_P4E.1_K4.1_C4.1_H4.1_A4.1_[T5A]_F4.1_[T8A]_T4.1 (ssRNA)
RNA: UUUGAUUAAUAUGAUAUCGUUCUUUCUUGUAAAUAAUUCUUUCUCGAUAUCAUAUUAAUCUUU
B7: Ic_S2_P4E.1_K4.1_C4.1_H4.1_A4.1_F4.1_[T8C]_[A9C]_T4.1 (ssRNA)
RNA: UUUGAUUAAUAUGAUAUCGUUCUUUCUUGUAUAUCCUUCUUUCUCGAUAUCAUAUUAAUCUUU
B8: Ia_S2_P4E.1_K4.1_C4.1_H4.1_A4.1_F4.1_[A9C]_T4.1 (ssRNA)
RNA: UUUGAUUAAUAUGAUAUCGUUCUUUCUUGUAUAUUCUUCUUUCUCGAUAUCAUAUUAAUCUUU
B9: Ib_S2_P4E.1_K4.1_C4.1_H4.1_[A4T]_A4.1_F4.1_[T8A]_T4.1 (ssRNA)
RNA: UUUGAUUAAUAUGAUAUCGUUCUUUCUUGUUUAUAAUUCUUUCUCGAUAUCAUAUUAAUCUUU
B10: Ic_S2_P4E.1_K4.1_C4.1_H4.1_A4.1_[A6T]_F4.1_[T8C]_T4.1 (ssRNA)
RNA: UUUGAUUAAUAUGAUAUCGUUCUUUCUUGUAUUUCAUUCUUUCUCGAUAUCAUAUUAAUCUUU
B11: Ib_S2_P4E.1_K4.1_C4.1_H4.1_[G2T]_A4.1_F4.1_[A9G]_T4.1 (ssRNA)
RNA: UUUGAUUAAUAUGAUAUCGUUCUUUCUUUUAUAUUGUUCUUUCUCGAUAUCAUAUUAAUCUUU
B12: Ib_S2_P4E.1_K4.1_C4.1_H4.1_[G2C]_A4.1_F4.1_[T8C]_T4.1 (ssRNA)
RNA: UUUGAUUAAUAUGAUAUCGUUCUUUCUUCUAUAUCAUUCUUUCUCGAUAUCAUAUUAAUCUUU
B13: Ib_S2_P4E.1_K4.1_C4.1_H4.1_[A4T]_A4.1_F4.1_[A9G]_T4.1 (ssRNA)
RNA: UUUGAUUAAUAUGAUAUCGUUCUUUCUUGUUUAUUGUUCUUUCUCGAUAUCAUAUUAAUCUUU
B14: Ib_S2_P4E.1_K4.1_C4.1_H4.1_A4.1_[A6C]_F4.1_[T8A]_T4.1 (ssRNA)
RNA: UUUGAUUAAUAUGAUAUCGUUCUUUCUUGUAUCUAAUUCUUUCUCGAUAUCAUAUUAAUCUUU
B15: Ic_S2_P4E.1_K4.1_C4.1_H4.1_A4.1_F4.1_[T8G]_[A9T]_T4.1 (ssRNA)
RNA: UUUGAUUAAUAUGAUAUCGUUCUUUCUUGUAUAUGUUUCUUUCUCGAUAUCAUAUUAAUCUUU
B16: Ib_S2_P4E.1_K4.1_C4.1_H4.1_[T3C]_A4.1_F4.1_[A9T]_T4.1 (ssRNA)
RNA: UUUGAUUAAUAUGAUAUCGUUCUUUCUUGCAUAUUUUUCUUUCUCGAUAUCAUAUUAAUCUUU
B17: Ib_S2_P4E.1_K4.1_C4.1_H4.1_[G2C]_A4.1_F4.1_[A9T]_T4.1 (ssRNA)
RNA: UUUGAUUAAUAUGAUAUCGUUCUUUCUUCUAUAUUUUUCUUUCUCGAUAUCAUAUUAAUCUUU
B18: Ib_S2_P4E.1_K4.1_C4.1_H4.1_A4.1_[T5A]_F4.1_[T8C]_T4.1 (ssRNA)
RNA: UUUGAUUAAUAUGAUAUCGUUCUUUCUUGUAAAUCAUUCUUUCUCGAUAUCAUAUUAAUCUUU
B19: Ib_S2_P4E.1_K4.1_C4.1_H4.1_A4.1_F4.1_[T8A]_[A9C]_T4.1 (ssRNA)
RNA: UUUGAUUAAUAUGAUAUCGUUCUUUCUUGUAUAUACUUCUUUCUCGAUAUCAUAUUAAUCUUU
B20: Ib_S2_P4E.1_K4.1_C4.1_H4.1_[A4G]_A4.1_F4.1_[A9G]_T4.1 (ssRNA)
RNA: UUUGAUUAAUAUGAUAUCGUUCUUUCUUGUGUAUUGUUCUUUCUCGAUAUCAUAUUAAUCUUU
B21: Ib_S2_P4E.1_K4.1_C4.1_H4.1_A4.1_F4.1_[T8A]_[A9G]_T4.1 (ssRNA)
RNA: UUUGAUUAAUAUGAUAUCGUUCUUUCUUGUAUAUAGUUCUUUCUCGAUAUCAUAUUAAUCUUU
B22: Ib_S2_P4E.1_K4.1_C4.1_H4.1_[G2A]_A4.1_F4.1_[A9C]_T4.1 (ssRNA)
RNA: UUUGAUUAAUAUGAUAUCGUUCUUUCUUAUAUAUUCUUCUUUCUCGAUAUCAUAUUAAUCUUU
B23: Ib_S2_P4E.1_K4.1_C4.1_H4.1_[T1A]_A4.1_F4.1_[A9T]_T4.1 (ssRNA)
RNA: UUUGAUUAAUAUGAUAUCGUUCUUUCUAGUAUAUUUUUCUUUCUCGAUAUCAUAUUAAUCUUU
B24: Ic_S2_P4E.1_K4.1_C4.1_H4.1_A4.1_[T7C]_F4.1_[T8C]_T4.1 (ssRNA)
RNA: UUUGAUUAAUAUGAUAUCGUUCUUUCUUGUAUACCAUUCUUUCUCGAUAUCAUAUUAAUCUUU
B25: Ib_S2_P4E.1_K4.1_C4.1_H4.1_[T1C]_A4.1_F4.1_[T8A]_T4.1 (ssRNA)
RNA: UUUGAUUAAUAUGAUAUCGUUCUUUCUCGUAUAUAAUUCUUUCUCGAUAUCAUAUUAAUCUUU
B26: Ib_S2_P4E.1_K4.1_C4.1_H4.1_[A4G]_A4.1_F4.1_[A9T]_T4.1 (ssRNA)
RNA: UUUGAUUAAUAUGAUAUCGUUCUUUCUUGUGUAUUUUUCUUUCUCGAUAUCAUAUUAAUCUUU
B27: Ib_S2_P4E.1_K4.1_C4.1_H4.1_[A4G]_A4.1_F4.1_[T8A]_T4.1 (ssRNA)
RNA: UUUGAUUAAUAUGAUAUCGUUCUUUCUUGUGUAUAAUUCUUUCUCGAUAUCAUAUUAAUCUUU
B28: Ic_S2_P4E.1_K4.1_C4.1_H4.1_A4.1_[T7G]_F4.1_[T8C]_T4.1 (ssRNA)
RNA: UUUGAUUAAUAUGAUAUCGUUCUUUCUUGUAUAGCAUUCUUUCUCGAUAUCAUAUUAAUCUUU
B29: Ic_S2_P4E.1_K4.1_C4.1_H4.1_A4.1_F4.1_[T8G]_[A9C]_T4.1 (ssRNA)
RNA: UUUGAUUAAUAUGAUAUCGUUCUUUCUUGUAUAUGCUUCUUUCUCGAUAUCAUAUUAAUCUUU
B30: Ib_S2_P4E.1_K4.1_C4.1_H4.1_[A4C]_A4.1_F4.1_[T8C]_T4.1 (ssRNA)
RNA: UUUGAUUAAUAUGAUAUCGUUCUUUCUUGUCUAUCAUUCUUUCUCGAUAUCAUAUUAAUCUUU
B31: Ib_S2_P4E.1_K4.1_C4.1_H4.1_[G2T]_A4.1_F4.1_[A9T]_T4.1 (ssRNA)
RNA: UUUGAUUAAUAUGAUAUCGUUCUUUCUUUUAUAUUUUUCUUUCUCGAUAUCAUAUUAAUCUUU
B32: Ib_S2_P4E.1_K4.1_C4.1_H4.1_[T1G]_A4.1_F4.1_[A9T]_T4.1 (ssRNA)
RNA: UUUGAUUAAUAUGAUAUCGUUCUUUCUGGUAUAUUUUUCUUUCUCGAUAUCAUAUUAAUCUUU
B33: Ib_S2_P4E.1_K4.1_C4.1_H4.1_A4.1_[T5C]_F4.1_[T8A]_T4.1 (ssRNA)
RNA: UUUGAUUAAUAUGAUAUCGUUCUUUCUUGUACAUAAUUCUUUCUCGAUAUCAUAUUAAUCUUU
B34: Ia_S2_P4E.1_K4.1_C4.1_H4.1_A4.1_F4.1_[T8C]_T4.1 (ssRNA)
RNA: UUUGAUUAAUAUGAUAUCGUUCUUUCUUGUAUAUCAUUCUUUCUCGAUAUCAUAUUAAUCUUU
B35: Ib_S2_P4E.1_K4.1_C4.1_H4.1_[A4T]_A4.1_F4.1_[T8C]_T4.1 (ssRNA)
RNA: UUUGAUUAAUAUGAUAUCGUUCUUUCUUGUUUAUCAUUCUUUCUCGAUAUCAUAUUAAUCUUU
B36: Ib_S2_P4E.1_K4.1_C4.1_H4.1_A4.1_[A6C]_F4.1_[T8C]_T4.1 (ssRNA)
RNA: UUUGAUUAAUAUGAUAUCGUUCUUUCUUGUAUCUCAUUCUUUCUCGAUAUCAUAUUAAUCUUU
B37: Ib_S2_P4E.1_K4.1_C4.1_H4.1_[A4G]_A4.1_F4.1_[A9C]_T4.1 (ssRNA)
RNA: UUUGAUUAAUAUGAUAUCGUUCUUUCUUGUGUAUUCUUCUUUCUCGAUAUCAUAUUAAUCUUU
B38: Ib_S2_P4E.1_K4.1_C4.1_H4.1_[T3C]_A4.1_F4.1_[A9C]_T4.1 (ssRNA)
RNA: UUUGAUUAAUAUGAUAUCGUUCUUUCUUGCAUAUUCUUCUUUCUCGAUAUCAUAUUAAUCUUU
B39: Ib_S2_P4E.1_K4.1_C4.1_H4.1_A4.1_[A6T]_F4.1_[T8A]_T4.1 (ssRNA)
RNA: UUUGAUUAAUAUGAUAUCGUUCUUUCUUGUAUUUAAUUCUUUCUCGAUAUCAUAUUAAUCUUU
B40: Ic_S2_P4E.1_K4.1_C4.1_H4.1_A4.1_F4.1_[T8C]_[A9G]_T4.1 (ssRNA)
RNA: UUUGAUUAAUAUGAUAUCGUUCUUUCUUGUAUAUCGUUCUUUCUCGAUAUCAUAUUAAUCUUU
B41: Ib_S2_P4E.1_K4.1_C4.1_H4.1_[T1C]_A4.1_F4.1_[A9C]_T4.1 (ssRNA)
RNA: UUUGAUUAAUAUGAUAUCGUUCUUUCUCGUAUAUUCUUCUUUCUCGAUAUCAUAUUAAUCUUU
B42: Ic_S2_P4E.1_K4.1_C4.1_H4.1_A4.1_F4.1_[T8A]_T4.1 (ssRNA)
RNA: UUUGAUUAAUAUGAUAUCGUUCUUUCUUGUAUAUAAUUCUUUCUCGAUAUCAUAUUAAUCUUU

For the series, the target named is T1, PUF4 RNA-binding domain (Saccharomyces cerevisiae, UniProt P25339 537-888).
T1 sequence: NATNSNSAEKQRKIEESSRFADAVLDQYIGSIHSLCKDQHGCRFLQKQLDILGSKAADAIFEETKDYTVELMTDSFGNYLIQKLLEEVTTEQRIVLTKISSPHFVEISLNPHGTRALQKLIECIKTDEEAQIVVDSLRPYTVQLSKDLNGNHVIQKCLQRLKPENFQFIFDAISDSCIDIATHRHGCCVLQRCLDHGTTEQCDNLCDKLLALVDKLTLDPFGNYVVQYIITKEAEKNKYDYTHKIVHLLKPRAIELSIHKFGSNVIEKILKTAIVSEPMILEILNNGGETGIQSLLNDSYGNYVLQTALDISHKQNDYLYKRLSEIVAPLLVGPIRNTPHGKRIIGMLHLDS
Description: Mg; RNA-MaP; 20 mM Na-HEPES pH 7.4, 30 mM KOAc, 0.75 mM MgCl2, 0.1% Tween-20, 5% glycerol, 0.1 mg/mL BSA, 2 mM DTT; 25 C; 0.0125-409.6 nM protein. The settings on record: tags: N-His6-TEV cleaved; C-SNAP kept, Cy3B-labelled; label: tethered on chip by stalled RNA polymerase.
Molecule B1 registered a Kd of 11.4 nM. The same measure for B2: 58.6 nM. The molecule B3 came in with a Kd of 16.2 nM. The same measure for B4: 203 nM.

Molecule B5 showed a Kd of 624 nM. The result for B6 reads 13.5 nM; that for B7, 8.44 nM; that for B8, 2.83 nM.

In the case of B9, binding was characterised by a dissociation constant (Kd) of 122 nM. The same measure for B10: 104 nM; for B11: > 2300 nM. The same measure for B12: 848 nM; for B13: 63.2 nM.

B14: the Kd was found to be 10.7 nM. The result for B15 reads 5.99 nM; that for B16, 957 nM. The result for B17 reads 983 nM; that for B18, 58.5 nM. The same measure for B19: 6.86 nM. Molecule B20 came in with a dissociation constant (Kd) of 28.9 nM. The same measure for B21: 9.03 nM; for B22: 200 nM; for B23: 1380 nM. The result for B24 reads 12 nM; that for B25, 451 nM. The same measure for B26: 5.78 nM. In the case of B27, the Kd is 3.78 nM. Molecule B28 registered a Kd of 42 nM.

Turning to B29, the Kd came out at 15.4 nM. With B30, the Kd was > 2300 nM.

B31 came in with a Kd of 1670 nM. The result for B32 reads 1380 nM; that for B33, 2.52 nM. For B34, the Kd was 7.94 nM. The same measure for B35: 1250 nM; for B36: 30.6 nM. The result for B37 reads 11.9 nM; that for B38, 1070 nM; that for B39, 17.8 nM. The result for B40 reads 7.89 nM; that for B41, 607 nM.

In turn, B42 yielded a Kd of 2.04 nM.

For orientation: Kd means the constant that tells how readily two partners part at equilibrium. A lower Kd goes with a tighter complex.

Source of the values: article PMC9352680, “A comprehensive thermodynamic model for RNA binding by the Saccharomyces cerevisiae Pumilio protein PUF4”.
